Measurements taken from publication PMC4390882 (Life, 2015).

Legend:
[1] = target: T1, MtACK (Methanosarcina thermophila acetate kinase) (Methanosarcina thermophila, UniProt P38502, G331A); test: hydroxamate assay, A540; format: biochemical; conditions: saturating acetate when possible (max 1 M), MgCl2, 50 mM Tris pH 7.5, 300 mM hydroxylamine, 37 °C
T1 construct: gene ackA; full-length, N-terminal His6 tag (pET15b, pETack), expressed in E. coli BL21(DE3), HisTrap purified; tag removal not mentioned

[2] = target: T2, MtACK (Methanosarcina thermophila acetate kinase) (Methanosarcina thermophila, UniProt P38502, G239S); test: hydroxamate assay, A540; format: biochemical; conditions: saturating acetate when possible (max 1 M), MgCl2, 50 mM Tris pH 7.5, 300 mM hydroxylamine, 37 °C
T2 construct: gene ackA; full-length, N-terminal His6 tag (pET15b, pETack), expressed in E. coli BL21(DE3), HisTrap purified; tag removal not mentioned
T2 sequence (P38502 whole entry G239S): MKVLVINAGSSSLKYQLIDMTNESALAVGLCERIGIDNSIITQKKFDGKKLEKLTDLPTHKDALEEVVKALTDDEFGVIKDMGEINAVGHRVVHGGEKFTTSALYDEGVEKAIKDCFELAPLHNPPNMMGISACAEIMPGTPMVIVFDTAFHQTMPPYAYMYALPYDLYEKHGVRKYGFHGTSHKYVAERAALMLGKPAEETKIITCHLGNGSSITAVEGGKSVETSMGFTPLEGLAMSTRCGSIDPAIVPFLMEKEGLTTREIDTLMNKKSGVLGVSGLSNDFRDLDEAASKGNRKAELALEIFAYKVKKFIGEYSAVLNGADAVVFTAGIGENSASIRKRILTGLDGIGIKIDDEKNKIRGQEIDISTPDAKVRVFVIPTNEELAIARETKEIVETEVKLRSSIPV

[3] = target: T3, MtACK (Methanosarcina thermophila acetate kinase) (Methanosarcina thermophila, UniProt P38502, G239A); test: hydroxamate assay, A540; format: biochemical; conditions: saturating acetate when possible (max 1 M), MgCl2, 50 mM Tris pH 7.5, 300 mM hydroxylamine, 37 °C
T3 construct: gene ackA; full-length, N-terminal His6 tag (pET15b, pETack), expressed in E. coli BL21(DE3), HisTrap purified; tag removal not mentioned
T3 sequence (P38502 whole entry G239A): as the sequence (P38502 whole entry G239S) above, with S239A counted along it

[4] = target: T4, MtACK (Methanosarcina thermophila acetate kinase) (Methanosarcina thermophila, UniProt P38502, N211A); test: hydroxamate assay, A540; format: biochemical; conditions: saturating acetate when possible (max 1 M), MgCl2, 50 mM Tris pH 7.5, 300 mM hydroxylamine, 37 °C
T4 construct: gene ackA; full-length, N-terminal His6 tag (pET15b, pETack), expressed in E. coli BL21(DE3), HisTrap purified; tag removal not mentioned
T4 sequence (P38502 whole entry N211A): as the sequence (P38502 whole entry G239S) above, with N211A, S239G counted along it

[5] = target: T5, MtACK (Methanosarcina thermophila acetate kinase) (Methanosarcina thermophila, UniProt P38502, N211S); test: hydroxamate assay, A540; format: biochemical; conditions: saturating acetate when possible (max 1 M), MgCl2, 50 mM Tris pH 7.5, 300 mM hydroxylamine, 37 °C
T5 construct: gene ackA; full-length, N-terminal His6 tag (pET15b, pETack), expressed in E. coli BL21(DE3), HisTrap purified; tag removal not mentioned
T5 sequence (P38502 whole entry N211S): as the sequence (P38502 whole entry G239S) above, with N211S, S239G counted along it

[6] = target: T6, MtACK (Methanosarcina thermophila acetate kinase) (Methanosarcina thermophila, UniProt P38502, N211T); test: hydroxamate assay, A540; format: biochemical; conditions: saturating acetate when possible (max 1 M), MgCl2, 50 mM Tris pH 7.5, 300 mM hydroxylamine, 37 °C
T6 construct: gene ackA; full-length, N-terminal His6 tag (pET15b, pETack), expressed in E. coli BL21(DE3), HisTrap purified; tag removal not mentioned
T6 sequence (P38502 whole entry N211T): as the sequence (P38502 whole entry G239S) above, with N211T, S239G counted along it

[7] = target: T7, MtACK (Methanosarcina thermophila acetate kinase) (Methanosarcina thermophila, UniProt P38502); test: hydroxamate assay, A540; format: biochemical; conditions: saturating acetate when possible (max 1 M), MgCl2, 50 mM Tris pH 7.5, 300 mM hydroxylamine, 37 °C
T7 construct: gene ackA; full-length, N-terminal His6 tag (pET15b, pETack), expressed in E. coli BL21(DE3), HisTrap purified; tag removal not mentioned

[8] = target: T8, MtACK (Methanosarcina thermophila acetate kinase) (Methanosarcina thermophila, UniProt P38502, G331Q); test: hydroxamate assay, A540; format: biochemical; conditions: acetate not saturating (max 1 M), MgCl2, 50 mM Tris pH 7.5, 300 mM hydroxylamine, 37 °C
T8 construct: gene ackA; full-length, N-terminal His6 tag (pET15b, pETack), expressed in E. coli BL21(DE3), HisTrap purified; tag removal not mentioned
T8 sequence (P38502 whole entry G331Q): as the sequence (P38502 whole entry G239S) above, with S239G, G331Q counted along it

[9] = substrate: Nc1ccn([C@@H]2O[C@H](COP(=O)(O)OP(=O)(O)OP(=O)(O)O)[C@@H](O)[C@H]2O)c(=O)n1; test: hydroxamate assay, A540; format: biochemical, Methanosarcina thermophila; conditions: saturating acetate when possible (max 1 M), MgCl2, 50 mM Tris pH 7.5, 300 mM hydroxylamine, 37 °C
[10] = substrate: Nc1nc2c(ncn2[C@@H]2O[C@H](COP(=O)(O)OP(=O)(O)OP(=O)(O)O)[C@@H](O)[C@H]2O)c(=O)[nH]1; test: hydroxamate assay, A540; format: biochemical, Methanosarcina thermophila; conditions: saturating acetate when possible (max 1 M), MgCl2, 50 mM Tris pH 7.5, 300 mM hydroxylamine, 37 °C
[11] = substrate: Cc1cn([C@H]2C[C@H](O)[C@@H](COP(=O)(O)OP(=O)(O)OP(=O)(O)O)O2)c(=O)[nH]c1=O; test: hydroxamate assay, A540; format: biochemical, Methanosarcina thermophila; conditions: saturating acetate when possible (max 1 M), MgCl2, 50 mM Tris pH 7.5, 300 mM hydroxylamine, 37 °C
[12] = substrate: O=c1ccn([C@@H]2O[C@H](COP(=O)(O)OP(=O)(O)OP(=O)(O)O)[C@@H](O)[C@H]2O)c(=O)[nH]1; test: hydroxamate assay, A540; format: biochemical, Methanosarcina thermophila; conditions: saturating acetate when possible (max 1 M), MgCl2, 50 mM Tris pH 7.5, 300 mM hydroxylamine, 37 °C
[13] = substrate: O=P(O)(O)OP(=O)(O)OP(=O)(O)OC[C@H]1O[C@@H](n2cnc3c(O)ncnc32)[C@H](O)[C@@H]1O; test: hydroxamate assay, A540; format: biochemical, Methanosarcina thermophila; conditions: saturating acetate when possible (max 1 M), MgCl2, 50 mM Tris pH 7.5, 300 mM hydroxylamine, 37 °C
[14] = substrate: CC(=O)O; test: purified protein; conditions: ATP constant at optimal concentration, MgCl2, 50 mM Tris pH 7.5, 300 mM hydroxylamine, 37 °C

Nc1ncnc2c1ncn2[C@@H]1O[C@H](COP(=O)(O)OP(=O)(O)OP(=O)(O)O)[C@@H](O)[C@H]1O [ATP]
Km [1]: 10.2 ± 0.4 mM | Km [2]: 1.8 ± 0.1 mM | Km [3]: 1.7 ± 0.1 mM | Km [4]: 5.9 ± 0.5 mM | Km [5]: 6.8 ± 0.6 mM | Km [6]: 7.1 ± 0.3 mM | Km [7]: 4 ± 0.3 mM | Km [8]: 18.4 ± 0.6 mM

B1: MtACK (Methanosarcina thermophila acetate kinase) (Methanosarcina thermophila; G331A) (protein)
chain: MKVLVINAGSSSLKYQLIDMTNESALAVGLCERIGIDNSIITQKKFDGKKLEKLTDLPTHKDALEEVVKALTDDEFGVIKDMGEINAVGHRVVHGGEKFTTSALYDEGVEKAIKDCFELAPLHNPPNMMGISACAEIMPGTPMVIVFDTAFHQTMPPYAYMYALPYDLYEKHGVRKYGFHGTSHKYVAERAALMLGKPAEETKIITCHLGNGSSITAVEGGKSVETSMGFTPLEGLAMGTRCGSIDPAIVPFLMEKEGLTTREIDTLMNKKSGVLGVSGLSNDFRDLDEAASKGNRKAELALEIFAYKVKKFIGEYSAVLNGADAVVFTAAIGENSASIRKRILTGLDGIGIKIDDEKNKIRGQEIDISTPDAKVRVFVIPTNEELAIARETKEIVETEVKLRSSIPV
notes: full-length, N-terminal His6 tag (pET15b, pETack), expressed in E. coli BL21(DE3), HisTrap purified; tag removal not mentioned
Km [9]: 15.7 ± 1.6 mM | kcat [9]: 17 ± 0.8 s⁻¹ | kcat/Km [9]: 1100 ± 70 M⁻¹ s⁻¹ | Km [10]: 5.3 ± 0.2 mM | kcat [10]: 67 ± 1.0 s⁻¹ | kcat/Km [10]: 12600 ± 400 M⁻¹ s⁻¹

B2: MtACK (Methanosarcina thermophila acetate kinase) (Methanosarcina thermophila) (protein)
chain: MKVLVINAGSSSLKYQLIDMTNESALAVGLCERIGIDNSIITQKKFDGKKLEKLTDLPTHKDALEEVVKALTDDEFGVIKDMGEINAVGHRVVHGGEKFTTSALYDEGVEKAIKDCFELAPLHNPPNMMGISACAEIMPGTPMVIVFDTAFHQTMPPYAYMYALPYDLYEKHGVRKYGFHGTSHKYVAERAALMLGKPAEETKIITCHLGNGSSITAVEGGKSVETSMGFTPLEGLAMGTRCGSIDPAIVPFLMEKEGLTTREIDTLMNKKSGVLGVSGLSNDFRDLDEAASKGNRKAELALEIFAYKVKKFIGEYSAVLNGADAVVFTAGIGENSASIRKRILTGLDGIGIKIDDEKNKIRGQEIDISTPDAKVRVFVIPTNEELAIARETKEIVETEVKLRSSIPV
notes: as for B1
Km [9]: 3.2 ± 0.4 mM | kcat [9]: 460 ± 28 s⁻¹ | kcat/Km [9]: 148000 ± 13000 M⁻¹ s⁻¹ | Km [11]: 2.7 ± 0.1 mM | kcat [11]: 540 ± 9 s⁻¹ | kcat/Km [11]: 202000 ± 2000 M⁻¹ s⁻¹ | Km [10]: 7.2 ± 0.9 mM | kcat [10]: 571 ± 22 s⁻¹ | kcat/Km [10]: 80000 ± 7000 M⁻¹ s⁻¹ | Km [12]: 2.7 ± 0.3 mM | kcat [12]: 415 ± 19 s⁻¹ | kcat/Km [12]: 152000 ± 7000 M⁻¹ s⁻¹ | Km [13]: 4.7 ± 0.2 mM | kcat [13]: 742 ± 10 s⁻¹ | kcat/Km [13]: 158000 ± 5000 M⁻¹ s⁻¹ | Km [14]: 14.3 ± 0.5 mM
